Laboratory results reported in the supplement of paper PMC7877785.
± gives the uncertainty stated by the source.

Assay: self-splicing fitness, log relative to wild type (ln ratio); higher = more splicing; Tetrahymena group I intron in knt gene, E. coli kanamycin selection, DiMSum; sequences stand for … in CUCUCU…GGAGGGAAAAGUUAUCAGGCAUGCACCUGGUAGCUAGUCUUUAAACCAAUAGAUUGCAUCGGUUUAAAAGGCAAGACCGUCAAAUUGCGGGAAAGGGGUCAACAGCCGUUCAGUACCAAGUCUCAGGGGAAACUUUGAGAUGGCCUUGCAAAGGGUAUGGUAAUAAGCUGACGGACAUGGUCCUAACCACGCAGCCAAGUCCUAAGUCAACAGAUCUUCUGUUGAUAUGGAUGCAGUUCACAGACUAAAUGUCGGUCGGGGAAGAUGUAUUCUUCUCAUAAGAUAUAGUCGGACCUCUCCUUAAUGGGAGCUAGCGGAUGAAGUGAUGCAACACUGGAGCCGCUGGGAACUAAUUUGUAUGCGAAAGUAUAUUGAUUAGUUUUGGAGUACUCGUGGUCG
Method in brief: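 Library with all eight P1ex-region intron nucleotides randomised, intron inside the knt kanamycin-resistance gene on pET-22b(+), in E. coli BL21(DE3). Cells grew overnight at 37°C or 30°C on LB agar with or without 25 μg/mL kanamycin (plus 100 μg/mL carbenicillin, 50 μM IPTG, 0.2% rhamnose), in six replicate transformations. Pooled colonies were amplicon-sequenced on Illumina HiSeq 2500. DiMSum fitness is the error-weighted combination of wild-type-normalised replicate fold changes, kanamycin versus none.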

CGUAAGCAAUAUUACGGUAC
self-splicing fitness (ln) (30 °C): -3.29 ± 0.28 | self-splicing fitness (ln) (37 °C): -1.78 ± 0.19

CGUAAGCAAUAUUACGGUCG
self-splicing fitness (ln) (30 °C): -0.611 ± 0.12 | self-splicing fitness (ln) (37 °C): 0.212 ± 0.14

CGUAAGCAAUAUUACGUAAA
self-splicing fitness (ln) (30 °C): -3.15 ± 0.24 | self-splicing fitness (ln) (37 °C): -2.1 ± 0.22

CGUAAGCAAUAUUACGUAAG
self-splicing fitness (ln) (30 °C): -1.49 ± 0.1 | self-splicing fitness (ln) (37 °C): -0.165 ± 0.092

CGUAAGCAAUAUUACGUACC
self-splicing fitness (ln) (30 °C): -1.94 ± 0.21 | self-splicing fitness (ln) (37 °C): -1.76 ± 0.24

CGUAAGCAAUAUUACGUAUA
self-splicing fitness (ln) (30 °C): -2.48 ± 0.26 | self-splicing fitness (ln) (37 °C): -2.21 ± 0.26

CGUAAGCAAUAUUACGUAUG
self-splicing fitness (ln) (30 °C): -2.17 ± 0.08 | self-splicing fitness (ln) (37 °C): -0.311 ± 0.072

CGUAAGCAAUAUUACGUCUA
self-splicing fitness (ln) (30 °C): -2.78 ± 0.28 | self-splicing fitness (ln) (37 °C): -2.03 ± 0.18

CGUAAGCAAUAUUACGUGAG
self-splicing fitness (ln) (30 °C): -2.17 ± 0.11 | self-splicing fitness (ln) (37 °C): -1.09 ± 0.092

CGUAAGCAAUAUUACGUGGU
self-splicing fitness (ln) (30 °C): -3.19 ± 0.13 | self-splicing fitness (ln) (37 °C): -2.72 ± 0.16

CGUAAGCAAUAUUACGUUCC
self-splicing fitness (ln) (30 °C): -2.63 ± 0.3

CGUCAGCAAUAUUACGAAUC
self-splicing fitness (ln) (30 °C): -3.1 ± 0.27 | self-splicing fitness (ln) (37 °C): -0.891 ± 0.33

CGUCAGCAAUAUUACGACAU
self-splicing fitness (ln) (30 °C): -0.647 ± 0.012 | self-splicing fitness (ln) (37 °C): -0.0443 ± 0.032

CGUCAGCAAUAUUACGACGU
self-splicing fitness (ln) (30 °C): -3.23 ± 0.17 | self-splicing fitness (ln) (37 °C): -1.93 ± 0.14

CGUCAGCAAUAUUACGAGAU
self-splicing fitness (ln) (30 °C): -3.93 ± 0.21 | self-splicing fitness (ln) (37 °C): -2.65 ± 0.17

CGUCAGCAAUAUUACGAGGG
self-splicing fitness (ln) (30 °C): -3.93 ± 0.1 | self-splicing fitness (ln) (37 °C): -1.81 ± 0.099

CGUCAGCAAUAUUACGAUCC
self-splicing fitness (ln) (30 °C): -1.62 ± 0.086 | self-splicing fitness (ln) (37 °C): -0.418 ± 0.13

CGUCAGCAAUAUUACGCCCC
self-splicing fitness (ln) (30 °C): -0.652 ± 0.24 | self-splicing fitness (ln) (37 °C): -1.34 ± 0.3

CGUCAGCAAUAUUACGCGCG
self-splicing fitness (ln) (30 °C): -4.06 ± 0.39 | self-splicing fitness (ln) (37 °C): -2.19 ± 0.36

CGUCAGCAAUAUUACGCGCU
self-splicing fitness (ln) (30 °C): -0.602 ± 0.18 | self-splicing fitness (ln) (37 °C): -2.64 ± 0.32

CGUCAGCAAUAUUACGCGUU
self-splicing fitness (ln) (30 °C): -2.71 ± 0.14 | self-splicing fitness (ln) (37 °C): -2.01 ± 0.18

CGUCAGCAAUAUUACGCUCU
self-splicing fitness (ln) (30 °C): -1.14 ± 0.12 | self-splicing fitness (ln) (37 °C): -0.257 ± 0.12

CGUCAGCAAUAUUACGGAGC
self-splicing fitness (ln) (30 °C): -3.85 ± 0.42 | self-splicing fitness (ln) (37 °C): -1.95 ± 0.26

CGUCAGCAAUAUUACGGCUG
self-splicing fitness (ln) (30 °C): -1.51 ± 0.12 | self-splicing fitness (ln) (37 °C): -1.24 ± 0.23

CGUCAGCAAUAUUACGGCUU
self-splicing fitness (ln) (30 °C): -1.34 ± 0.11 | self-splicing fitness (ln) (37 °C): -0.493 ± 0.099

CGUCAGCAAUAUUACGGGUG
self-splicing fitness (ln) (30 °C): -1.9 ± 0.091 | self-splicing fitness (ln) (37 °C): -0.977 ± 0.11

CGUCAGCAAUAUUACGGUCA
self-splicing fitness (ln) (30 °C): -0.717 ± 0.08 | self-splicing fitness (ln) (37 °C): 0.201 ± 0.1

CGUCAGCAAUAUUACGGUCC
self-splicing fitness (ln) (30 °C): -1.34 ± 0.079 | self-splicing fitness (ln) (37 °C): -0.173 ± 0.1

CGUCAGCAAUAUUACGUAAU
self-splicing fitness (ln) (30 °C): -2.93 ± 0.17 | self-splicing fitness (ln) (37 °C): -1.2 ± 0.13

CGUCAGCAAUAUUACGUCCC
self-splicing fitness (ln) (30 °C): -3.43 ± 0.31 | self-splicing fitness (ln) (37 °C): -0.834 ± 0.22

CGUCAGCAAUAUUACGUGUG
self-splicing fitness (ln) (30 °C): -0.543 ± 0.059 | self-splicing fitness (ln) (37 °C): -0.104 ± 0.068

CGUCAGCAAUAUUACGUUCG
self-splicing fitness (ln) (30 °C): -1.45 ± 0.068 | self-splicing fitness (ln) (37 °C): -0.148 ± 0.096

CGUGAGCAAUAUUACGACCC
self-splicing fitness (ln) (30 °C): -1.76 ± 0.23 | self-splicing fitness (ln) (37 °C): -0.787 ± 0.16

CGUGAGCAAUAUUACGAGGA
self-splicing fitness (ln) (30 °C): -3.04 ± 0.39 | self-splicing fitness (ln) (37 °C): -1.65 ± 0.33

CGUGAGCAAUAUUACGAUGA
self-splicing fitness (ln) (30 °C): -3.64 ± 0.23 | self-splicing fitness (ln) (37 °C): -2.04 ± 0.17

CGUGAGCAAUAUUACGAUGC
self-splicing fitness (ln) (30 °C): -0.111 ± 0.43 | self-splicing fitness (ln) (37 °C): -2 ± 0.48

CGUGAGCAAUAUUACGCAGA
self-splicing fitness (ln) (37 °C): -1.49 ± 0.38

CGUGAGCAAUAUUACGCAGG
self-splicing fitness (ln) (30 °C): -1.54 ± 0.11 | self-splicing fitness (ln) (37 °C): -2.14 ± 0.15

CGUGAGCAAUAUUACGCGGA
self-splicing fitness (ln) (37 °C): -1.62 ± 0.39

CGUGAGCAAUAUUACGGCCG
self-splicing fitness (ln) (30 °C): -1.92 ± 0.43

CGUGAGCAAUAUUACGGGGU
self-splicing fitness (ln) (30 °C): -3.62 ± 0.2 | self-splicing fitness (ln) (37 °C): -3.32 ± 0.26

CGUGAGCAAUAUUACGGUAG
self-splicing fitness (ln) (30 °C): -1.84 ± 0.11 | self-splicing fitness (ln) (37 °C): -1.11 ± 0.11

CGUGAGCAAUAUUACGGUAU
self-splicing fitness (ln) (30 °C): -3.54 ± 0.25 | self-splicing fitness (ln) (37 °C): -3.1 ± 0.34
